Measured values from patent US20240132578A1.

Columns and labels:
Assay in all cases: cell-based or functional assay
[1] = molecular target: HIV-1 Env of isolate APV-17 (Clade B) (HIV-1)
[2] = molecular target: HIV-1 envelope glycoprotein (Env) of isolate 93UG077 (HIV-1)
[3] = molecular target: HIV-1 envelope glycoprotein (Env) of isolate NL43 (HIV-1)
[4] = molecular target: aMLV envelope protein (negative control pseudovirus)
[5] = molecular target: HIV-1 MGRM-AG-005 envelope glycoprotein (Env) on virus (HIV-1, clade AG, isolate MGRM-AG-005)
[6] = molecular target: aMLV envelope protein on virus (negative control) (aMLV)
[7] = molecular target: HIV-1 MGRM-C-027 Env (pseudovirus) (HIV-1)
[8] = molecular target: HIV-1 APV17 envelope glycoprotein (Env) (HIV-1)
[9] = molecular target: HIV-1 APV6 envelope glycoprotein (Env) (HIV-1)
[10] = molecular target: HIV-1 92RW020 envelope glycoprotein (Env) on pseudovirus (HIV-1)
[11] = molecular target: HIV-1 JR-CSF Env R315A (HIV-1 (isolate JR-CSF, clade B)) (UniProt P20871)
[12] = molecular target: HIV-1 Env of isolate IAVI-C3 (Clade C) (HIV-1)
[13] = molecular target: HIV-1 JR-CSF envelope glycoprotein (Env), wild type, on pseudovirus (HIV-1 isolate JR-CSF (clade B)) (UniProt P20871)
[14] = molecular target: HIV-1 92RW020 envelope glycoprotein (Env), clade A pseudovirus (HIV-1)
[15] = molecular target: HIV-1 92UG024 envelope glycoprotein (Env), clade D pseudovirus (HIV-1)
[16] = molecular target: HIV-1 94UG103 envelope glycoprotein (Env), clade A pseudovirus (HIV-1)
[17] = molecular target: HIV-1 APV17 envelope glycoprotein (Env), clade B pseudovirus (HIV-1)
[18] = molecular target: HIV-1 Env of isolate MG RM-D-011 (subtype D) (HIV-1)
[19] = molecular target: HIV-1 Env of isolate MG RM-D-016 (subtype D) (HIV-1)
[20] = molecular target: HIV-1 Env of isolate MG RM-D-020 (subtype D) (HIV-1)
[21] = molecular target: HIV-1 Env of isolate MGRM-A-010 (pseudovirus) (HIV-1)
[22] = molecular target: HIV-1 Env of isolate MGRM-A-011 (pseudovirus) (HIV-1)
[23] = molecular target: HIV-1 Env of isolate MGRM-A-013 (pseudovirus) (HIV-1)
[24] = molecular target: HIV-1 Env of isolate MGRM-A-014 (pseudovirus) (HIV-1)
[25] = molecular target: HIV-1 Env of isolate MGRM-C-024 (clade C pseudovirus) (HIV-1)
[26] = molecular target: HIV-1 Env of isolate MGRM-C-025 (clade C pseudovirus) (HIV-1)
[27] = molecular target: HIV-1 Env of isolate MGRM-C-026 (clade C pseudovirus) (HIV-1)
[28] = molecular target: HIV-1 Env of isolate MGRM-C-028 (clade C pseudovirus) (HIV-1)
[29] = molecular target: HIV-1 Env of isolate MGRM-Chronic-B-008 (subtype B), on pseudovirus (HIV-1)
[30] = molecular target: HIV-1 Env of isolate MGRM-Chronic-B-012 (subtype B), on pseudovirus (HIV-1)
[31] = molecular target: HIV-1 Env of isolate MGRM-Chronic-B-023 (subtype B), on pseudovirus (HIV-1)
[32] = molecular target: HIV-1 Env of isolate MGRM-F1-012 (subtype F) (HIV-1)
[33] = molecular target: HIV-1 envelope glycoprotein (Env) of isolate 92WR024 (HIV-1)
[34] = molecular target: HIV-1 envelope glycoprotein (Env) of isolate MG RM-A-003 (HIV-1)
[35] = molecular target: HIV-1 envelope glycoprotein (Env) of isolate MG RM-A-005 (HIV-1)
[36] = molecular target: HIV-1 envelope glycoprotein (Env) of isolate MG RM-A-009 (HIV-1)

Sequence of 5329_C19 (PGT-136) (antibody) (VH): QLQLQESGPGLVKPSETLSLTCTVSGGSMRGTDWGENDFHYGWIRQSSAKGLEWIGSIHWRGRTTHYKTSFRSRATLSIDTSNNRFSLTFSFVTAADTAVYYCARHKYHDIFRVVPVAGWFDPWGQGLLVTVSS
Sequence of 5329_C19 (PGT-136) (antibody) (VL): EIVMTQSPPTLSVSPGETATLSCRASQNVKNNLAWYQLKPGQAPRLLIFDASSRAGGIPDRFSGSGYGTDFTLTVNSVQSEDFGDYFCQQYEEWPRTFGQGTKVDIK
Sequence of 1443_C16 (PG16) (TCN-116) (antibody) (VH): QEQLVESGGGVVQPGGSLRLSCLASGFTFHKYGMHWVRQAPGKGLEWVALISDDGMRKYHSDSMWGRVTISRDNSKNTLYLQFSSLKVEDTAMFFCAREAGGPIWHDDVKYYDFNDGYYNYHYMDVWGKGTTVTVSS
Sequence of 1443_C16 (PG16) (TCN-116) (antibody) (VL): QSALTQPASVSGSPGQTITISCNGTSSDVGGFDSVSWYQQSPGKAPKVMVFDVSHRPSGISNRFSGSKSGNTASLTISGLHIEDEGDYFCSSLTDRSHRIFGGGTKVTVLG

b12 (antibody)
IC90 (neutralization of pseudovirus) [1]: > 50 µg/mL

5141_B17 (PGT-126) (antibody)
Neutralization IC80 [2]: 0.102 µg/mL
Neutralization IC90 [2]: 0.238 µg/mL
Neutralization IC95 [2]: 0.577 µg/mL
neutralization IC50 [2]: 0.0256 µg/mL
Neutralization IC80 [3]: > 10 µg/mL
Neutralization IC90 [3]: > 10 µg/mL
Neutralization IC95 [3]: > 10 µg/mL
neutralization IC50 [3]: > 10 µg/mL
Neutralization IC80 [4]: > 10 µg/mL
Neutralization IC90 [4]: > 10 µg/mL
Neutralization IC95 [4]: > 10 µg/mL
neutralization IC50 [4]: > 10 µg/mL

4877_D15 (PGT-122) (antibody)
Neutralization IC80 [5]: > 10 µg/mL
Neutralization IC90 [5]: > 10 µg/mL
Neutralization IC95 [5]: > 10 µg/mL
neutralization IC50 [5]: > 10 µg/mL
Neutralization IC80 [6]: > 10 µg/mL
Neutralization IC90 [6]: > 10 µg/mL
Neutralization IC95 [6]: > 10 µg/mL
neutralization IC50 [6]: > 10 µg/mL

5123_A06 (PGT-125) (antibody)
Neutralization by PGT-125, IC50 [7]: > 10 µg/mL
Neutralization by PGT-125, IC80 [7]: > 10 µg/mL
Neutralization by PGT-125, IC90 [7]: > 10 µg/mL
Neutralization by PGT-125, IC95 [7]: > 10 µg/mL

5329_C19 (PGT-136) (antibody)
Neutralization IC80 [8]: > 10 µg/mL
Neutralization IC90 [8]: > 10 µg/mL
Neutralization IC95 [8]: > 10 µg/mL
neutralization IC50 [8]: > 10 µg/mL
Neutralization IC80 [9]: > 10 µg/mL
Neutralization IC90 [9]: > 10 µg/mL
Neutralization IC95 [9]: > 10 µg/mL
neutralization IC50 [9]: > 10 µg/mL

5343_B08 (PGT-135) (antibody)
Neutralization IC80 [10]: 3.46 µg/mL
Neutralization IC90 [10]: > 10 µg/mL
Neutralization IC95 [10]: > 10 µg/mL
neutralization IC50 [10]: 0.157 µg/mL
Fold IC50 increase relative to wild-type [11]: 1.8 fold

2G12 (antibody)
IC90 (neutralization of pseudovirus) [12]: > 50 µg/mL

1443_C16 (PG16) (TCN-116) (antibody)
IC90 (neutralization of pseudovirus) [1]: > 50 µg/mL
IC90 (neutralization of pseudovirus) [12]: > 50 µg/mL
IC50 (ug/ml), pseudovirus neutralization, TZM-bl assay [13]: 0.001 µg/mL

4858_P08 (PGT-123) (antibody)
IC50, pseudovirus neutralization [14]: 0.0038 µg/mL
IC80 (pseudovirus neutralization) [14]: 0.0106 µg/mL
IC90 (pseudovirus neutralization) [14]: 0.0194 µg/mL
IC95 (pseudovirus neutralization) [14]: 0.0343 µg/mL
IC50, pseudovirus neutralization [15]: > 10 µg/mL
IC80 (pseudovirus neutralization) [15]: > 10 µg/mL
IC90 (pseudovirus neutralization) [15]: > 10 µg/mL
IC95 (pseudovirus neutralization) [15]: > 10 µg/mL
IC50, pseudovirus neutralization [16]: 0.846 µg/mL
IC80 (pseudovirus neutralization) [16]: 3.29 µg/mL
IC90 (pseudovirus neutralization) [16]: 8.56 µg/mL
IC95 (pseudovirus neutralization) [16]: > 10 µg/mL
IC50, pseudovirus neutralization [17]: 0.18 µg/mL
IC80 (pseudovirus neutralization) [17]: 0.539 µg/mL
IC90 (pseudovirus neutralization) [17]: 1.01 µg/mL
IC95 (pseudovirus neutralization) [17]: 1.75 µg/mL
IC50, pseudovirus neutralization [4]: > 10 µg/mL
IC80 (pseudovirus neutralization) [4]: > 10 µg/mL
IC90 (pseudovirus neutralization) [4]: > 10 µg/mL
IC95 (pseudovirus neutralization) [4]: > 10 µg/mL

PGV04 (antibody)
IC50 (µg/mL), pseudovirus neutralization [18]: 0.025 µg/mL
IC50 (µg/mL), pseudovirus neutralization [19]: 0.201 µg/mL
IC50 (µg/mL), pseudovirus neutralization [20]: 0.097 µg/mL
IC50 (µg/mL), pseudovirus neutralization [21]: 0.205 µg/mL
IC50 (µg/mL), pseudovirus neutralization [22]: 0.09 µg/mL
IC50 (µg/mL), pseudovirus neutralization [23]: 0.086 µg/mL
IC50 (µg/mL), pseudovirus neutralization [24]: 0.172 µg/mL
IC50 (µg/mL), single-round pseudovirus neutralization [25]: > 50 µg/mL
IC50 (µg/mL), single-round pseudovirus neutralization [26]: > 50 µg/mL
IC50 (µg/mL), single-round pseudovirus neutralization [27]: 0.303 µg/mL
IC50 (µg/mL), single-round pseudovirus neutralization [28]: 0.149 µg/mL
IC50, single-round pseudovirus neutralization [29]: 0.166 µg/mL
IC50, single-round pseudovirus neutralization [30]: > 50 µg/mL
IC50, single-round pseudovirus neutralization [31]: 0.139 µg/mL
IC50 (µg/mL), pseudovirus neutralization [32]: 0.25 µg/mL
IC50 [33]: 0.31 µg/mL
IC50 [2]: 0.083 µg/mL
IC50 [34]: 0.128 µg/mL
IC50 [35]: 0.134 µg/mL
IC50 [36]: 0.033 µg/mL

1496_C09 (PG9) (TCN-109) (antibody)
IC50 (µg/mL), pseudovirus neutralization [18]: 0.071 µg/mL
IC50 (µg/mL), pseudovirus neutralization [19]: 0.098 µg/mL
IC50 (µg/mL), pseudovirus neutralization [20]: 1.67 µg/mL
IC50 (µg/mL), pseudovirus neutralization [21]: 0.022 µg/mL
IC50 (µg/mL), pseudovirus neutralization [22]: 0.033 µg/mL
IC50 (µg/mL), pseudovirus neutralization [23]: 0.122 µg/mL
IC50 (µg/mL), pseudovirus neutralization [24]: 1.25 µg/mL
IC50 (µg/mL), single-round pseudovirus neutralization [25]: 0.227 µg/mL
IC50 (µg/mL), single-round pseudovirus neutralization [26]: 0.148 µg/mL
IC50 (µg/mL), single-round pseudovirus neutralization [27]: 0.06 µg/mL
IC50 (µg/mL), single-round pseudovirus neutralization [28]: 0.067 µg/mL
IC50, single-round pseudovirus neutralization [29]: 8.78 µg/mL
IC50, single-round pseudovirus neutralization [30]: 0.2 µg/mL
IC50, single-round pseudovirus neutralization [31]: 0.027 µg/mL
IC50 (µg/mL), pseudovirus neutralization [32]: 0.023 µg/mL
IC50 (ug/ml), pseudovirus neutralization, TZM-bl assay [13]: 0.006 µg/mL
IC50 [33]: 0.258 µg/mL
IC50 [34]: 1.94 µg/mL
IC50 [35]: 0.75 µg/mL
IC50 [36]: 0.023 µg/mL
